± gives the uncertainty stated by the source.
B1: SAM and SH3 domain-containing protein 1, residues 630 to 700; numbered along this chain, O94885 (parent)
chain: GRPPQPKSVEDLLDRINLKEHMPTFLFNGYEDLDTFKLLEEEDLDELNIRDPEHRAVLLTAVELLQEYDSN

Variants of: B1
Test: abundance fitness (aPCA) (normalised: wild type 0, dead -1); higher = more abundant; growth selection in yeast, the domain comes from the species named
Conditions: Homo sapiens

Variant	abundance fitness
GRPPQPKSVEDLLDRINLKEHMPTFLFNGEEDLDTFKLLEEEDLDELNIRDPEHRAVLLTAVELLQEYDSN	-0.515 ± 0.092
GRPPQPKSVEDLLDRINLKEHMPTFLFNGYEDLDTFKLLEEEDLDELNIRDPHHRAVLLTAVELLQEYDSN	-0.09 ± 0.049
GRPPQPKSVEDLLTRINLKEHMPTFLFNGYEDLDTFKLLEEEDLDELNIRDPEHRAVLLTAVELLQEYDSN	-0.086 ± 0.045
GRPPQPKSVEDLLIRINLKEHMPTFLFNGYEDLDTFKLLEEEDLDELNIRDPEHRAVLLTAVELLQEYDSN	-0.293 ± 0.054
GRPSQPKSVEDLLDRINLKEHMPTFLFNGYEDLDTFKLLEEEDLDELNIRDPEHRAVLLTAVELLQEYDSN	-0.03 ± 0.045
GRPPQPKSVEDLLDRINLKEHMPTFLFVGYEDLDTFKLLEEEDLDELNIRDPEHRAVLLTAVELLQEYDSN	-0.939 ± 0.076
GRPPQPKSVEDLLDRINLKEHMPTFLFNGYEDLDTFKLLEEEDLDELNIRDPEKRAVLLTAVELLQEYDSN	-0.496 ± 0.078
GRPPQPKSVEDLLDRINLKEHMPTFLFNGYEDLDTFKLLEEEDLDELNIRDPETRAVLLTAVELLQEYDSN	-0.093 ± 0.045
GRPPQPKSVEDLLDRINLKEHMPTFLFNGYEDLDTFKLLEEEDLDELNILDPEHRAVLLTAVELLQEYDSN	0.091 ± 0.035
GRPPQPKSVEDLLDRINLKEHMPTFLFNGYEDLDTFKLLEEEDLDELNIADPEHRAVLLTAVELLQEYDSN	-0.301 ± 0.043
GRPPQPKSVEDLLDEINLKEHMPTFLFNGYEDLDTFKLLEEEDLDELNIRDPEHRAVLLTAVELLQEYDSN	-0.07 ± 0.055
GRPPQPKSVEDLLDHINLKEHMPTFLFNGYEDLDTFKLLEEEDLDELNIRDPEHRAVLLTAVELLQEYDSN	-0.342 ± 0.054
GRPPQPKSVEDLLDKINLKEHMPTFLFNGYEDLDTFKLLEEEDLDELNIRDPEHRAVLLTAVELLQEYDSN	-0.036 ± 0.049
GRPPQPKSVEDLLDYINLKEHMPTFLFNGYEDLDTFKLLEEEDLDELNIRDPEHRAVLLTAVELLQEYDSN	-0.3 ± 0.053
GRPPQPKSVEDLLDRINLKEHMPTFLFNGYEDLDTFKLLEEEDLDELNIRDPEHRAVLLTAVELLCEYDSN	-0.448 ± 0.064
GRPPQPKSVEDLLDRINLKEHMPTFLFNGYEDLDTFKLLEEEDLDELNIRDPEHRAVLLTAVELLLEYDSN	-0.351 ± 0.038
GRPPQPKSVEDLLDRINLKEHMPTFLFNGYEDLDTFKLLEEEDLDELNIRDPEHRAVLLTAVELLEEYDSN	-0.623 ± 0.088
GRPPQPKSVEDLLDRINLFEHMPTFLFNGYEDLDTFKLLEEEDLDELNIRDPEHRAVLLTAVELLQEYDSN	-0.654 ± 0.061
GRPPQPKSVEDLLDRINLKEHMPTFLFNGYEDLATFKLLEEEDLDELNIRDPEHRAVLLTAVELLQEYDSN	-0.145 ± 0.04

Variant	abundance fitness
GRPPQPKSVEDLLDRINLKEHMPTFLFNGYEDLMTFKLLEEEDLDELNIRDPEHRAVLLTAVELLQEYDSN	-0.518 ± 0.058
GRPPQPKSVEDLLDRINLKEHMPTFLFNGYEDLETFKLLEEEDLDELNIRDPEHRAVLLTAVELLQEYDSN	0.041 ± 0.048
GRPPQPKSVEDLLDRINLKEHMPTFLFNGYEDLDTFKLLEEEALDELNIRDPEHRAVLLTAVELLQEYDSN	-0.325 ± 0.045
CRPPQPKSVEDLLDRINLKEHMPTFLFNGYEDLDTFKLLEEEDLDELNIRDPEHRAVLLTAVELLQEYDSN	-0.067 ± 0.085
YRPPQPKSVEDLLDRINLKEHMPTFLFNGYEDLDTFKLLEEEDLDELNIRDPEHRAVLLTAVELLQEYDSN	0.098 ± 0.075
GRPPQPKSVEDLLDRINLKEHMPTFLFNGYESLDTFKLLEEEDLDELNIRDPEHRAVLLTAVELLQEYDSN	0.094 ± 0.033
GRPPQPKSVEDLLDRINLKEHMPTFLFNGYEMLDTFKLLEEEDLDELNIRDPEHRAVLLTAVELLQEYDSN	-0.682 ± 0.06
GRPPQPKSVEDLLDRINLKEHMPTFLFNGYEDLDTFKLLEEEDLKELNIRDPEHRAVLLTAVELLQEYDSN	-0.135 ± 0.048
GRPPQPKSVEDLLDRICLKEHMPTFLFNGYEDLDTFKLLEEEDLDELNIRDPEHRAVLLTAVELLQEYDSN	-0.486 ± 0.068
GRPPQPKSVEDLLDRINLKEHMPTFLFNGYEDLDTFKLLEKEDLDELNIRDPEHRAVLLTAVELLQEYDSN	-0.302 ± 0.066
GRTPQPKSVEDLLDRINLKEHMPTFLFNGYEDLDTFKLLEEEDLDELNIRDPEHRAVLLTAVELLQEYDSN	-0.014 ± 0.041
GREPQPKSVEDLLDRINLKEHMPTFLFNGYEDLDTFKLLEEEDLDELNIRDPEHRAVLLTAVELLQEYDSN	0.04 ± 0.056
GRWPQPKSVEDLLDRINLKEHMPTFLFNGYEDLDTFKLLEEEDLDELNIRDPEHRAVLLTAVELLQEYDSN	-0.132 ± 0.062
GRPPQPKSVWDLLDRINLKEHMPTFLFNGYEDLDTFKLLEEEDLDELNIRDPEHRAVLLTAVELLQEYDSN	-0.511 ± 0.086
GRPPQPKSVEDLLDRINLKEHMPTFLFNGYEDLDTFKLLEEEDLDELNFRDPEHRAVLLTAVELLQEYDSN	-0.851 ± 0.069
GRPPQPKSVEDLLDRINLKEHMPTFLFNGYEDLDTFKLLEEEDLDELNVRDPEHRAVLLTAVELLQEYDSN	-0.398 ± 0.042
GRPPQPKSVEDLLDRINLKEHMPTFLFNGYEDLDTFKLLEEEDLDEFNIRDPEHRAVLLTAVELLQEYDSN	-0.828 ± 0.061
GRPPQPKSVEDLLDRINLKEHMPTFLFNGYEDLDTFKLLEEEDLDECNIRDPEHRAVLLTAVELLQEYDSN	-0.577 ± 0.055
GRPPYPKSVEDLLDRINLKEHMPTFLFNGYEDLDTFKLLEEEDLDELNIRDPEHRAVLLTAVELLQEYDSN	0.202 ± 0.049

Source: the Human Domainome abundance scans (Beltran et al. 2025)
